Data as given in patent publication US20240116985A1, “STAPLED PEPTIDES AND METHODS THEREOF” (priority 2020, published 2024).
One block for each binder: values may come before it. Starred links: 1 amine or outer side, 2 acyl side, 3 side chain; linkers in the order of their positions; H or OH if unused. Positions of bridges follow the written chain, without caps; N, C: chain ends. Non-standard residues stand in square brackets, D forms with d. Primed or numbered codes have the meaning given here. No end group written: not given here. PyrS2″ = (S)-3-amino-1-((pent-4-en-1-yloxy)carbonyl)pyrrolidine-3-carboxylic acid (stapling residue), C=CCCCOC(=O)N1CC[C@@](N[*:1])(C(=O)[*:2])C1; B5(16) = 2-amino-2-(pent-4-en-1-yl)hept-6-enoic acid = 2,2-bis(4-pentenyl)glycine (stitching residue), C=CCCCC(CCCC=C)(N[*:1])C(=O)[*:2]; B5(30) = 2-amino-2-(pent-4-en-1-yl)hept-6-enoic acid (2,2-bis(4-pentenyl)glycine, stitching residue), C=CCCCC(CCCC=C)(N[*:1])C(=O)[*:2]; B5(4) = 2,2-bis(4-pentenyl)glycine = 2-amino-2-(pent-4-en-1-yl)hept-6-enoic acid (stitching residue), C=CCCCC(CCCC=C)(N[*:1])C(=O)[*:2]; B5(5) = 2,2-bis(4-pentenyl)glycine, 2-amino-2-(pent-4-en-1-yl)hept-6-enoic acid (stitching residue), C=CCCCC(CCCC=C)(N[*:1])C(=O)[*:2]; PyrS2 = (S)-3-amino-1-((pent-4-en-1-yloxy)carbonyl)pyrrolidine-3-carboxylic acid, C=CCCCOC(=O)N1CC[C@@](N[*:1])(C(=O)[*:2])C1; B5(12) = 2-amino-2-(pent-4-en-1-yl)hept-6-enoic acid (two olefin side chains), C=CCCCC(CCCC=C)(N[*:1])C(=O)[*:2]; Phe(3-COOH) = N[C@@H](Cc1cccc(C(=O)O)c1)C(=O)O; Phe(2-CF3) = N[C@@H](Cc1ccccc1C(F)(F)F)C(=O)O; Phe(2-Cl) = N[C@@H](Cc1ccccc1Cl)C(=O)O; Phe(2-Me) = Cc1ccccc1C[C@H](N)C(=O)O; Bta = N[C@@H](Cc1csc2ccccc12)C(=O)O; Lys(iPr) = CC(C)NCCCC[C@H](N)C(=O)O; αAllylPro = C=CC[C@@]1(C(=O)O)CCCN1; tBuAla = CC(C)(C)C[C@H](N)C(=O)O; 3Thi = N[C@@H](Cc1ccsc1)C(=O)O; Cha = N[C@@H](CC1CCCCC1)C(=O)O; Thr(ol) = C[C@@H](O)[C@H](N)CO; PyrS2(4) = not defined here

Tests used:
[1] = target: full-length beta-Catenin (Uniprot ID P35222) (Homo sapiens (Human)) (UniProt P35222); experiment: cell-based or functional assay
Bcat-Halo [2] = target: Bcat-Halo (UniProt P35222); experiment: NanoBRET absolute IC50 in HEK293 cells; Bcat-Halo, competitor TCF4-Luc
Sequence of Bcat-Halo (P35222 whole entry): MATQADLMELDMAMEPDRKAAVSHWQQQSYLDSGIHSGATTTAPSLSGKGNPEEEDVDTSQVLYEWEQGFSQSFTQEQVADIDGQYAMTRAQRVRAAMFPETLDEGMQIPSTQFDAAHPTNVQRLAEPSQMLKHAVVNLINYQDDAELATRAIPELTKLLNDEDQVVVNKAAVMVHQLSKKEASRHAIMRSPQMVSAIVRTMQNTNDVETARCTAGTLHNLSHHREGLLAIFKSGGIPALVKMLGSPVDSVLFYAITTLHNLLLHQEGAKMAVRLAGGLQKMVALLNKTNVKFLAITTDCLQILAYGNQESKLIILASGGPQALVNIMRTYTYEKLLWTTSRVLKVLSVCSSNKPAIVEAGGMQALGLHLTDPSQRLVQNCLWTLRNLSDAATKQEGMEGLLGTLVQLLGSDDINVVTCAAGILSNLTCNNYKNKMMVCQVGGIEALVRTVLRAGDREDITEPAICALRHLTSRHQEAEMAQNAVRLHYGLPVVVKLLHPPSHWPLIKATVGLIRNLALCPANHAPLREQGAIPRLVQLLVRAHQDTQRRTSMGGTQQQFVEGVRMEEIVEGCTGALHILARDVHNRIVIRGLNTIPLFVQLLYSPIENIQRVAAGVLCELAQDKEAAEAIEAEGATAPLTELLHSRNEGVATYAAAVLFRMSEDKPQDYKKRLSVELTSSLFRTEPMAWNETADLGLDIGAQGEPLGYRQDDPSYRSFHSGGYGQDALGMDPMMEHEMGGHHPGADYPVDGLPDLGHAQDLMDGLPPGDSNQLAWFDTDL

[3] = target: full-length beta-Catenin (Uniprot ID P35222) (Homo sapiens (Human)) (UniProt P35222); experiment: fluorescence polarization competition; full-length beta-catenin, competitor 5FAM-TCF4 10-53
Target sequence in this assay (P35222 whole entry, one chain of several): as the sequence (P35222 whole entry) above

Bcat-Halo [4] = target: Bcat-Halo (UniProt P35222); experiment: NanoBRET Abs IC50, HEK293 cells transfected with Bcat-Halo and TCF4-Luc (competitor: TCF4-Luc); cellular assay
[5] = target: full-length beta-Catenin (Uniprot ID P35222) (Homo sapiens (Human)) (UniProt P35222); experiment: fluorescence polarization competition; 10 nM full-length beta-catenin + 10 nM 5FAM-TCF4 10-53 as competitor probe
Target sequence in this assay (P35222 2-781 limits assumed): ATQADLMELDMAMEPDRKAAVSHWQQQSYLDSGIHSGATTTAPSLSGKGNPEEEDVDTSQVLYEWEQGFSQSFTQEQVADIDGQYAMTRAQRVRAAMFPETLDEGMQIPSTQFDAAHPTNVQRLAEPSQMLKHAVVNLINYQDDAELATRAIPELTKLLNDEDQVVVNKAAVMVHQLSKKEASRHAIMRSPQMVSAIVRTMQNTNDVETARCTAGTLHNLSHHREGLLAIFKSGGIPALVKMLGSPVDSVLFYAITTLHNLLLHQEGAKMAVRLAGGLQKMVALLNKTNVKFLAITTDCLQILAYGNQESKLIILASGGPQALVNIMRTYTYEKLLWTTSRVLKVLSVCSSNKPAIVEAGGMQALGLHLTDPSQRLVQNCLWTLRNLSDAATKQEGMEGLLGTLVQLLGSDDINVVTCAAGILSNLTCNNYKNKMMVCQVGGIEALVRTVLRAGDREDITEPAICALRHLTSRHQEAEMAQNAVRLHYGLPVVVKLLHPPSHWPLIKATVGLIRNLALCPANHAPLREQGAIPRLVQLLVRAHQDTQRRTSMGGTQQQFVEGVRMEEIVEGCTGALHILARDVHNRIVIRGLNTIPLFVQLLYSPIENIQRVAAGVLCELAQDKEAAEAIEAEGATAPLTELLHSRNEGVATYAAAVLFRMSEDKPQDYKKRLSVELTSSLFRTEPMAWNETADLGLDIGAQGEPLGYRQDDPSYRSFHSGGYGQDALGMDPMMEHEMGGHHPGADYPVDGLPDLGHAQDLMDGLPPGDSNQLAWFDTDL

[6] = target: full-length beta-Catenin (Uniprot ID P35222) (Homo sapiens (Human)) (UniProt P35222); experiment: fluorescence polarization competition; full-length beta-catenin with 5FAM-TCF4(10-53) probe, peptide titrated
Target sequence in this assay (P35222 whole entry, one chain of several): as the sequence (P35222 whole entry) above

[7] = target: full-length beta-Catenin (Uniprot ID P35222) (Homo sapiens (Human)) (UniProt P35222); experiment: fluorescence polarization competition; full-length beta-catenin + 5FAM-TCF4 10-53 probe
Target sequence in this assay (P35222 2-781 limits assumed): as the sequence (P35222 2-781 limits assumed) above

[8] = target: full-length beta-Catenin (Uniprot ID P35222) (Homo sapiens (Human)) (UniProt P35222); experiment: fluorescence polarization competition; full-length beta-catenin + 5FAM-TCF4(10-53) probe
Target sequence in this assay (P35222 whole entry, one chain of several): as the sequence (P35222 whole entry) above

[9] = target: full-length beta-Catenin (Uniprot ID P35222) (Homo sapiens (Human)) (UniProt P35222); experiment: fluorescence polarization competition; full-length beta-catenin, competitor 5FAM-TCF4(10-53) probe
Target sequence in this assay (P35222 2-781 limits assumed): as the sequence (P35222 2-781 limits assumed) above

[10] = target: B-cat-Halo (beta-catenin HaloTag NanoBRET construct expressed in HEK293 cells) (UniProt P35222); experiment: NanoBRET Abs IC50 in HEK293 cells; Bcat-Halo, competitor TCF4-Luc
Sequence of B-cat-Halo (beta-catenin HaloTag NanoBRET construct expressed in HEK293 cells) (P35222 whole entry): as the sequence (P35222 whole entry) above

[11] = target: full-length beta-Catenin (Uniprot ID P35222) (Homo sapiens (Human)) (UniProt P35222); experiment: fluorescence polarization competition; competitor 5FAM-TCF4(10-53) probe on full-length beta-catenin
Target sequence in this assay (P35222 whole entry, one chain of several): as the sequence (P35222 whole entry) above

Bcat-Halo [12] = target: Bcat-Halo (UniProt P35222); experiment: NanoBRET absolute IC50, HEK293 cells, Bcat-Halo/TCF4-Luc engagement
[13] = target: full-length beta-Catenin (Uniprot ID P35222) (Homo sapiens (Human)) (UniProt P35222); experiment: FP competition, full-length beta-catenin, competitor probe 5FAM-TCF4 10-53
Target sequence in this assay (P35222 2-781 limits assumed): as the sequence (P35222 2-781 limits assumed) above

[14] = target: full-length beta-Catenin (Uniprot ID P35222) (Homo sapiens (Human)) (UniProt P35222); experiment: fluorescence polarization competition; peptide titrated against 5FAM-TCF4(10-53) bound to full-length beta-catenin
Target sequence in this assay (P35222 whole entry, one chain of several): as the sequence (P35222 whole entry) above

- IC50 [13]: 150 nM
- EC50 [9]: 150 nM
B17: I-1343 (peptide)
peptide: Ac-[αAllylPro]D[tBuAla][B5(4)]D[Phe(3-COOH)]AAFF[PyrS2″][Phe(2-CF3)][Bta][Thr(ol)]
modifications: staple 1-4, 4-11

- IC50 [14]: 31 nM
B18: I-1890 (peptide)
peptide: Ac-[αAllylPro]D[tBuAla][B5(5)]DRAAFN[PyrS2][3Thi][Bta]Q-NH2
modifications: staple 1-4, 4-11; not fully specified; printed as Ac-PL3-Asp-Npg-B5-Asp-Arg-Ala-Ala-Phe-Asn-PyrS2-3Thi-BztA-Gln-NH2

- IC50 [14]: 40 nM
B19: I-1891 (peptide)
peptide: Ac-[αAllylPro]D[tBuAla][B5(5)]DRAAFN[PyrS2][3Thi][Bta]Q-NH2
modifications: staple 1-4, 4-11; not fully specified; printed as Ac-PL3-Asp-Npg-B5-Asp-Arg-Ala-Ala-Phe-Asn-PyrS2-3Thi-BztA-Gln-NH2

- IC50 [14]: 1420 nM
B20: I-1892 (peptide)
peptide: Ac-[αAllylPro]D[tBuAla][B5(30)]NRAAFN[PyrS2][3Thi][Bta]Q-NH2
modifications: staple 1-4, 4-11; also: earlier-eluting HPLC isomer

- IC50 [14]: 15 nM
B21: I-1904 (peptide)
peptide: Ac-[αAllylPro]D[tBuAla][B5(12)]D[Phe(3-COOH)]AAFL[PyrS2(4)][Phe(2-Cl)][Bta]N-NH2
modifications: staple 1-4, 4-11; not fully specified; printed as Ac-PL3-Asp-Npg-B5-Asp-3COOHF-Ala-Ala-Phe-Leu-PyrS2-2C1F-BztA-Asn-NH2; reading uncertain

- IC50 [14]: 29 nM
B22: I-1909 (peptide)
peptide: Ac-[αAllylPro]D[tBuAla][B5(12)]D[Phe(3-COOH)][Lys(iPr)]AFL[PyrS2(4)][3Thi][Bta]F-NH2
modifications: staple 1-4, 4-11; not fully specified; printed as Ac-PL3-Asp-Npg-B5-Asp-3COOHF-iPrLys-Ala-Phe-Leu-PyrS2-3Thi-BztA-Phe-NH2; reading uncertain

- IC50 [14]: 17 nM
B23: I-1910 (peptide)
peptide: Ac-[αAllylPro]D[tBuAla][B5(12)]D[Phe(3-COOH)]HAFL[PyrS2(4)][3Thi][Bta]F-NH2
modifications: staple 1-4, 4-11; not fully specified; printed as Ac-PL3-Asp-Npg-B5-Asp-3COOHF-His-Ala-Phe-Leu-PyrS2-3Thi-BztA-Phe-NH2; reading uncertain

- IC50 [14]: 38 nM
B24: I-1911 (peptide)
peptide: Ac-[αAllylPro]D[tBuAla][B5(12)]D[Phe(3-COOH)]KAFL[PyrS2(4)][3Thi][Bta]F-NH2
modifications: staple 1-4, 4-11; not fully specified; printed as Ac-PL3-Asp-Npg-B5-Asp-3COOHF-Lys-Ala-Phe-Leu-PyrS2-3Thi-BztA-Phe-NH2; reading uncertain

The next lines start with the binder.

B1: I-1029 (peptide)
peptide: Ac-[αAllylPro]E[tBuAla][B5(5)]DDAAFN[PyrS2″][Phe(2-Cl)][Bta][dT]-NH2
modifications: staple 1-4, 4-11
- DLD1 reporter assay Abs IC50 [1]: > 20000 nM
- IC50 (Bcat-Halo [2]): > 20000 nM
- IC50 [3]: 823 nM
- IC50 (Bcat-Halo [4]): > 20000 nM
- EC50 [5]: 823 nM

B2: I-1030 (peptide)
peptide: Ac-[αAllylPro]D[tBuAla][B5(5)]EDAAFN[PyrS2″][Phe(2-Cl)][Bta][dT]-NH2
modifications: staple 1-4, 4-11
- DLD1 reporter assay Abs IC50 [1]: > 20000 nM
- IC50 (Bcat-Halo [2]): > 20000 nM
- IC50 [3]: 507 nM
- IC50 (Bcat-Halo [4]): > 20000 nM
- EC50 [5]: 507 nM

B3: I-1035 (peptide)
peptide: Ac-[αAllylPro]D[tBuAla][B5(5)]DDAAFL[PyrS2″][Phe(2-Cl)][Bta][dT]-NH2
modifications: staple 1-4, 4-11
- DLD1 reporter assay Abs IC50 [1]: > 20000 nM
- IC50 (Bcat-Halo [2]): 10200 nM
- IC50 [3]: 21 nM
- IC50 (Bcat-Halo [4]): 10200 nM
- EC50 [5]: 21 nM

B4: I-1044 (peptide)
peptide: Ac-[αAllylPro]D[Cha][B5(16)]DDAAFS[PyrS2″][Phe(2-Cl)][Bta]Q-NH2
modifications: staple 1-4, 4-11
- DLD1 4% Abs IC50 [1]: 14500 nM
- DLD1 reporter assay Abs IC50 [1]: 20000 nM
- IC50 [6]: 5 nM
- IC50 (Bcat-Halo [4]): 17600 nM
- EC50 [5]: 5 nM

B5: I-1050 (peptide)
peptide: Ac-[αAllylPro]D[Cha][B5(5)]DDAAFS[PyrS2][Phe(2-Cl)][Bta]S-NH2
modifications: staple 1-4, 4-11
- DLD1 reporter assay Abs IC50 [1]: 11200 nM
- IC50 [6]: 5 nM
- IC50 (Bcat-Halo [4]): 24800 nM
- EC50 [5]: 5 nM

B6: I-1046 (peptide)
peptide: Ac-[αAllylPro]D[Cha][B5(16)]DDAAFN[PyrS2″][Phe(2-Cl)][Bta]S-NH2
modifications: staple 1-4, 4-11
- IC50 [6]: 5 nM
- IC50 (Bcat-Halo [4]): 20500 nM
- EC50 [5]: 5 nM

B7: I-1302 (peptide)
peptide: Ac-[αAllylPro]D[tBuAla][B5(4)]DDAAFL[PyrS2][3Thi][Bta][Thr(ol)]
modifications: staple 1-4, 4-11
- IC50 [7]: 45 nM
- EC50 [8]: 45 nM

B8: I-1303 (peptide)
peptide: Ac-[αAllylPro]D[tBuAla][B5(4)]DDAAFF[PyrS2][3Thi][Bta][Thr(ol)]
modifications: staple 1-4, 4-11
- IC50 [7]: 86 nM
- EC50 [8]: 86 nM

B9: I-1304 (peptide)
peptide: Ac-[αAllylPro]N[tBuAla][B5(4)]DDAAFL[PyrS2][3Thi][Bta][Thr(ol)]
modifications: staple 1-4, 4-11
- IC50 [7]: 31 nM
- EC50 [8]: 31 nM

B10: I-1311 (peptide)
peptide: Ac-[αAllylPro]D[tBuAla][B5(4)]DDAAFF[PyrS2″][Phe(2-Cl)][Bta][Thr(ol)]
modifications: staple 1-4, 4-11
- IC50 [7]: 38 nM
- EC50 [9]: 38 nM

B11: I-1326 (peptide)
peptide: [αAllylPro]D[tBuAla][B5(5)]DDAAFF[PyrS2″][Phe(2-Me)][Bta]Q-NH2
modifications: staple 1-4; staple 4-11 (inferred)
- IC50 [10]: 6200 nM
- EC50 [9]: 12 nM
- IC50 [11]: 12 nM

B12: I-1338 (peptide)
peptide: [αAllylPro]D[tBuAla][B5(4)]D[Phe(3-COOH)]AAFF[PyrS2″][Phe(2-Cl)][Bta]Q-NH2
modifications: staple 1-4; staple 4-11 (inferred)
- IC50 [10]: 3600 nM
- IC50 (Bcat-Halo [12]): 3600 nM
- IC50 [13]: 10 nM
- EC50 [9]: 10 nM

B13: I-1339 (peptide)
peptide: [αAllylPro]D[tBuAla][B5(4)]D[Phe(3-COOH)]AAFF[PyrS2″][Phe(2-Cl)][Bta]S-NH2
modifications: staple 1-4; staple 4-11 (inferred)
- IC50 [10]: 5200 nM
- IC50 (Bcat-Halo [12]): 5200 nM
- IC50 [13]: 33 nM
- EC50 [9]: 33 nM

B14: I-1340 (peptide)
peptide: [αAllylPro]D[tBuAla][B5(4)]D[Phe(3-COOH)]AAFF[PyrS2″][Phe(2-Cl)][Bta][Thr(ol)]
modifications: staple 1-4; staple 4-11 (inferred)
- IC50 [10]: 6800 nM
- IC50 (Bcat-Halo [12]): 6800 nM
- IC50 [13]: 159 nM
- EC50 [9]: 159 nM

B15: I-1341 (peptide)
peptide: [αAllylPro]D[tBuAla][B5(4)]D[Phe(3-COOH)]AAFF[PyrS2″][Phe(2-CF3)][Bta]Q-NH2
modifications: staple 1-4; staple 4-11 (inferred)
- IC50 [10]: 3500 nM
- IC50 (Bcat-Halo [12]): 3500 nM
- IC50 [13]: 17 nM
- EC50 [9]: 17 nM

B16: I-1342 (peptide)
peptide: [αAllylPro]D[tBuAla][B5(4)]D[Phe(3-COOH)]AAFF[PyrS2″][Phe(2-CF3)][Bta]S-NH2
modifications: staple 1-4; staple 4-11 (inferred)
- IC50 [10]: 7000 nM
- IC50 (Bcat-Halo [12]): 7000 nM
- IC50 [13]: 35 nM
- EC50 [9]: 35 nM
